± gives the uncertainty stated by the source.

The chains are these.
B1: GAS2-like protein 1, residues 209 to 276; numbered along this chain, Q99501 (parent)
chain: DELVREILGRCTCPDQFPMIKVSEGKYRVGDSSLLIFVRVLRSHVMVRVGGGWDTLEHYLDKHDPCRC

The variants in this data set derive from B1. Nature of the data set: abundance fitness (aPCA) (normalised: wild type 0, dead -1); higher = more abundant; growth selection in yeast, the domain comes from the species named. Conditions: Homo sapiens.
As to DELVREILGRCTCPDQFPMIKVSEGKYRVGDSSLLIFVRVLRSHVMVRVRGGWDTLEHYLDKHDPCRC, the abundance fitness is -0.18 ± 0.044.

Consider DELVREILGRCTCPDQFPMIKVSEGKYRVGDSSLLIFVRVLRSHVMVRVLGGWDTLEHYLDKHDPCRC, for which the abundance fitness was -0.473 ± 0.05.

Take DELVREILGRCTCPDQFPMIKVSEGKYRVGDSSLLIFVRVLRSHVMVRVTGGWDTLEHYLDKHDPCRC: the abundance fitness is -0.259 ± 0.051.

On to DELVREILGRCTCPDQFPMIKVSEGKYRVGDSSLLIFVRVLRSHVMVRVPGGWDTLEHYLDKHDPCRC, for which the abundance fitness is -0.039 ± 0.043.

With DELVREILGRCTCPDQFPMIKVSEGKYRVGDSSLLIFVRVLRSHVMVRVNGGWDTLEHYLDKHDPCRC, the abundance fitness came out at 0.007 ± 0.11.

Consider DELVREILGRCTCPDQFPMIKVSEGKYRVGDSSLLIFVRVLRSHVMVRVDGGWDTLEHYLDKHDPCRC, for which the abundance fitness was determined as 0.076 ± 0.068.

For DELVREILGRCTCPDQFPMIKVSEGKYRVGDSSLLIFVRVLRSHVMVRVAGGWDTLEHYLDKHDPCRC, the abundance fitness was -0.08 ± 0.086.

For the variant DELVREILGRCTCPDQFPMIKVSEGKYRVGDSSLLIFVRVLRSHVMVRVHGGWDTLEHYLDKHDPCRC, the abundance fitness was -0.205 ± 0.072.

With DELVREILGRCTCPDQFPMIKVSEGKYRVGDSSLLIFVRVLRSHVMVRVIGGWDTLEHYLDKHDPCRC, the abundance fitness was -0.765 ± 0.13.

Consider DELVREILGRCTCPDQFPMIKVSEGKYRVGDSSLLIFVRVLRSHVMVRVQGGWDTLEHYLDKHDPCRC, for which the abundance fitness was -0.017 ± 0.055.

In the case of DELVREILGRCTCPDQFPMIKVSEGKYRVGDSSLLIFVRVLRSHVMCRVGGGWDTLEHYLDKHDPCRC, the abundance fitness was -0.175 ± 0.051.

As for DELVREILGRCTCPDQFPMIKVSEGKYRVGDSSLLIFVRVLRSHVMWRVGGGWDTLEHYLDKHDPCRC, the abundance fitness was -0.761 ± 0.13.

Regarding DELVREILGRCTCPDQFPMIKVSEGKYRVGDSSLLIFVRVLRSHVMGRVGGGWDTLEHYLDKHDPCRC, the abundance fitness was -0.851 ± 0.069.

In the case of DELVREILGRCTCPDQFPMIKVSEGKYRVGDSSLLIFVRVLRSHVMQRVGGGWDTLEHYLDKHDPCRC, the abundance fitness is -1.08 ± 0.46.

As to DELVREILGRCTCPDQFPMIKVSEGKYRVGDSSLLIFVRVLRSHVMRRVGGGWDTLEHYLDKHDPCRC, the abundance fitness was -0.979 ± 0.1.

On to DELVREILGRCTCPDQFPMIKVSEGKYRVGDSSLLIFVRVLRSHVMFRVGGGWDTLEHYLDKHDPCRC, for which the abundance fitness is -0.921 ± 0.2.

Regarding DELVREILGRCTCPDQFPMIKVSEGKYRVGDSSLLIFVRVLRSHVMTRVGGGWDTLEHYLDKHDPCRC, the abundance fitness was -0.783 ± 0.087.

Take DELVREILGRCTCPDQFPMIKVSEGKYRVGDSSLLIFVRVLRSHVMKRVGGGWDTLEHYLDKHDPCRC: the abundance fitness is -0.694 ± 0.13.

Turning to DELVREILGRCTCPDQFPMIKVSEGKYRVGDSSLLIFVRVLRSHVMSRVGGGWDTLEHYLDKHDPCRC, the abundance fitness was -1.08 ± 0.12.

On to DELVREILGRCTCPDQFPMIKVSEGKYRVGDSSLLIFVRVLRSHVMPRVGGGWDTLEHYLDKHDPCRC, for which the abundance fitness is -0.888 ± 0.12.

With DELVREILGRCTCPDQFPMIKVSEGKYRVGDSSLLIFVRVLRSHVMYRVGGGWDTLEHYLDKHDPCRC, the abundance fitness was -0.386 ± 0.12.

Consider DELVREILGRCTCPDQFPMIKVSEGKYRVGDSSLLIFVRVLRSHVMLRVGGGWDTLEHYLDKHDPCRC, for which the abundance fitness was -0.595 ± 0.056.

On to DELVREILGRCTCPDQFPMIKVSEGKYRVGDSSLLIFVRVLRSHVMMRVGGGWDTLEHYLDKHDPCRC, for which the abundance fitness is -0.565 ± 0.12.

For the variant DELVREILGRCTCPDQFPMIKVSEGKYRVGDSSLLIFVRVLRSHVMERVGGGWDTLEHYLDKHDPCRC, the abundance fitness was -0.99 ± 0.2.

Regarding DELVREILGRCTCPDQFPMIKVSEGKYRVGDSSLLIFVRVLRSHVMNRVGGGWDTLEHYLDKHDPCRC, the abundance fitness is -1.01 ± 0.18.

Consider DELVREILGRCTCPDQFPMIKVSEGKYRVGDSSLLIFVRVLRSHVMDRVGGGWDTLEHYLDKHDPCRC, for which the abundance fitness is -0.997 ± 0.16.

As to DELVREILGRCTCPDQFPMIKVSEGKYRVGDSSLLIFVRVLRSHVMVRSGGGWDTLEHYLDKHDPCRC, the abundance fitness is -0.048 ± 0.042.

For the variant DELVREILGRCTCPDQFPMIKVSEGKYRVGDSSLLIFVRVLRSHVMVRQGGGWDTLEHYLDKHDPCRC, the abundance fitness was found to be 0.146 ± 0.062.

Regarding DELVREILGRCTCPDQFPMIKVSEGKYRVGDSSLLIFVRVLRSHVMVRGGGGWDTLEHYLDKHDPCRC, the abundance fitness was -0.25 ± 0.14.

As to DELVREILGRCTCPDQFPMIKVSEGKYRVGDSSLLIFVRVLRSHVMVRYGGGWDTLEHYLDKHDPCRC, the abundance fitness was -0.035 ± 0.058.

Take DELVREILGRCTCPDQFPMIKVSEGKYRVGDSSLLIFVRVLRSHVMVRDGGGWDTLEHYLDKHDPCRC: the abundance fitness was 0.256 ± 0.076.

With DELVREILGRCTCPDQFPMIKVSEGKYRVGDSSLLIFVRVLRSHVMVRNGGGWDTLEHYLDKHDPCRC, the abundance fitness is 0.013 ± 0.072.

For DELVREILGRCTCPDQFPMIKVSEGKYRVGDSSLLIFVRVLRSHVMVRKGGGWDTLEHYLDKHDPCRC, the abundance fitness was -0.324 ± 0.089.

Turning to DELVREILGRCTCPDQFPMIKVSEGKYRVGDSSLLIFVRVLRSHVMVRAGGGWDTLEHYLDKHDPCRC, the abundance fitness was found to be 0.007 ± 0.041.

In the case of DELVREILGRCTCPDQFPMIKVSEGKYRVGDSSLLIFVRVLRSHVMVRIGGGWDTLEHYLDKHDPCRC, the abundance fitness is -0.133 ± 0.058.

For the variant DELVREILGRCTCPDQFPMIKVSEGKYRVGDSSLLIFVRVLRSHVMVRLGGGWDTLEHYLDKHDPCRC, the abundance fitness is -0.319 ± 0.046.

Regarding DELVREILGRCTCPDQFPMIKVSEGKYRVGDSSLLIFVRVLRSHVMVRMGGGWDTLEHYLDKHDPCRC, the abundance fitness was -0.133 ± 0.06.

DELVREILGRCTCPDQFPMIKVSEGKYRVGDSSLLIFVRVLRSHVMVRRGGGWDTLEHYLDKHDPCRC: the abundance fitness is -0.247 ± 0.055.

With DELVREILGRCTCPDQFPMIKVSEGKYRVGDSSLLIFVRVLRSHVMVRCGGGWDTLEHYLDKHDPCRC, the abundance fitness was -0.069 ± 0.12.

Turning to DELVREILGRCTCPDQFPMIKVSEGKYRVGDSSLLIFVRVLRSHVMVRFGGGWDTLEHYLDKHDPCRC, the abundance fitness was -0.337 ± 0.074.

The values are drawn from the Human Domainome abundance scans (Beltran et al. 2025).
